Target: 人PD-1 (程序性死亡受体1) (human) (UniProt Q15116)
Experiment: flow cytometry receptor occupancy on patients' peripheral blood T lymphocytes (CD45RA-); bound toripalimab detected with PE-labelled anti-human IgG4 Fc, total PD-1 after saturation with toripalimab; dose groups 1, 3 and 10 mg/kg Q2W

UniProt Q15116, sequence (Q15116 25-288): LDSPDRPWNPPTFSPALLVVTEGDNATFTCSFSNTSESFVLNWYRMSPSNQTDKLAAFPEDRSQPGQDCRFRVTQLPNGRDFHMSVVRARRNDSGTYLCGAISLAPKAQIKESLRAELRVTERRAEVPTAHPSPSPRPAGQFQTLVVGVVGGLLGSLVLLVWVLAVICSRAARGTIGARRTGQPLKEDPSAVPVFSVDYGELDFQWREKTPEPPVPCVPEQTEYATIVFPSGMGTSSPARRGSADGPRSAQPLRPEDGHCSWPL

PD-1受体占位率(RO): > 80%
Substance: 特瑞普利单抗(Toripalimab) (antibody)
